Assay results from the DeepSol protein solubility set.

test: soluble on expression in E. coli; label from the status in PepcDB or PDB records

Row | Sequence | soluble on expression in E. coli
1 | MLCLGIEGTAEKTGVGIVDEAGNVLSLRGKPLIPEKGGIHPREAAEHHAKWIPRLIAEACRDAGVELGEIGLISFSRGPGLGPALRTVATAARTLALSLDVPIVGVNHCIGHIEIGRLTTGASDPVSLYVSGGNTQVIAFNEGRYRVFGETLDIAVGNMLDQFARESGLGHPGGPVIEQLALKASEYIELPYSVKGMDISFSGLLTAALRKMEAGASLEDLAYSIQETAFSMLVEVTERALAYTEKNQVLLCGGVAVNRRLRDMLREMCQEHHVEFHMPPPEYCGDNGAMIAWLGQLVYKYRGPDALEDTTVVQRYRTDEVDVPWMRESEAGIELPPDILAKGAEANIYRGQWIGRPCIIKERISKGYRIPEIDQKLRSSRTRREARLINQAKGAGVHTPVLFDVDPDGGVMVMEEVRGTPFRDAVEDTELCSRIGEAIGRLHHAGIIHGDLTGSNIIIRGGDVVFIDFGLGRFSDEIEDMGVDLLVLKKSLESTHYALAGECFSRVLEGYGKIIDADIQSKIREIESRGRYTD | soluble
2 | SNAMTIRFADKADCAAITEIYNHAVLHTAAIWNDRTVDTDNRLAWYEARQLLGYPVLVSEENGVVTGYASFGDWRSFDGFRYTVEHSVYVHPAHQGKGLGRKLLSRLIDEARRCGKHVMVAGIESQNAASIRLHHSLGFTVTAQMPQVGVKFGRWLDLTFMQLQLDEHAAPDAC | soluble
3 | MSNILFKPTHLPISKPFHALLANILSEHQAKSEVQATSKEVVMNFRDSSYSAEDGGFHPVEIALSQSSDGQWCIEYITDFAYVGNHFPELERCLDFDFQRGDFFTAYHGWNPIVGNRDARELYQLWESNFLAYVATEAFDDISLTSAP | soluble
4 | MLPSAQVARLKPDPFPPSLSPIPHGAVTFAALAPCHNLPIFSSRQMLRDSLTYSHTSPTMSPQIANRFEASLDAQDIARISLFTLESGVILRDVPVAYKSWGRMNVSRDNCVIVCHTLTSSAHVTSWWPTLFGQGRAFDTSRYFIICLNYLGSPFGSAGPCSPDPDAEGQRPYGAKFPRTTIRDDVRIHRQVLDRLGVRQIAAVVGASMGGMHTLEWAFFGPEYVRKIVPIATSCRQSGWCAAWFETQRQCIYDDPKYLDGEYDVDDQPVRGLETARKIANLTYKSKPAMDERFHMAPGVQAGRNISSQDAKKEINGTDSGNSHRAGQPIEAVSSYLRYQAQKFAASFDANCYIAMTLKFDTHDISRGRAGSIPEALAMITQPALIICARSDGLYSFDEHVEMGRSIPNSRLCVVDTNEGHDFFVMEADKVNDAVRGFLDQSLM | soluble
5 | MGSDKIHHHHHHMDELYIMNPWWRDPEIINTDRHISMFENSTFKYFPENLFKKIPLNKPGIYTIRGPRQVGKTTFLKLYIRKLLRDGVKPSNIFFFTCDAVKDRFELIETMKAYFQIFERKAGETRYLFIDEITAVEDWQKSIKYLVDIGLLENSLLILTGSSAFDLKRSSERLPGRKGYGEDLVYLPLTFGEFLESLGISVERMSVDDIFLKSEEELRILYLKNSFLKEYFVKYLNTGGFPKVIDVFLKEGKIDEITKGVFRDFILGDAEKYLGSRIKVIEIFKKLPDIVGQRFSWNSLVDIFSGAIESVDTIQKYFEYLGYSFILMNVFFVDISRKTVRLKKQKKTYPIDRVVVDIIEEISGKQIKLPQIVEMLTLRHLMGNGKTLPNGMNLYDGPFFWYSDRGNEVDFVFEHGDSLIPVEINFQNNIHRSDYAGMKKVFKKGIVITQDAIFRDENIVAVPAWLFFAVFEGNE | not soluble
6 | MYKDLEGKVVVITGSSTGLGKSMAIRFATEKAKVVVNYRSKEDEANSVLEEIKKVGGEAIAVKGDVTVESDVINLVQSAIKEFGKLDVMINNAGLENPVSSHEMSLSDWNKVIDTNLTGAFLGSREAIKYFVENDIKGTVINMSSVHEKIPWPLFVHYAASKGGMKLMTETLALEYAPKGIRVNNIGPGAINTPINAEKFADPEQRADVESMIPMGYIGEPEEIAAVAAWLASSEASYVTGITLFADGGMTLYPSFQAGRG | soluble
7 | SDERDVLWVGVCAMPKKVESEPMQRILAALTSSRVAHFEPMIFDAKTLFERPIHKWPVCDALIAFHSEGFPLERAIAYAELRRPYCLNGLREQRMLLDRSKVYEVLARERVPVPRHIVVRHDGADVGRTDTRFVEHDDYIEYCGERLFKPFVEKPIDAEDHRVCIYYARPLYGRRRLFRKTANQSSVFEPGWRRVRREGAFIYEEFIPSEHQSDIKVYAVGPEYAYAERRKSPVVDGIVERNAHGKELRFPVELSTAERCVAATITAAFRQFVCGFDLIRHADGNAFYVNDVNGFSFVKGSQSYYESCGRILAEHLARECARSAAVDGE | soluble
8 | KSEHETRLEAKLFEDYSSVVRPVEDHREIVQVTVGLQLIQLINVDEVNQIVTTNVRLKQQWVDYNLKWNPDDYGGVKKIHIPSEKIWRPDVVLYNNADGDFAIVKFTKVLLDYTGHITWTPPAIFKSYCEIIVTHFPFDEQNCSMKLGTRTYDGSAVAINPESDQPDLSNFMESGEWVIKEARGWKHWVFYSCCPTTPYLDITYHFVMQRLP | soluble
9 | MTAIRFDHVDVIFGTHTKEALKLLDQGLGRAEILKRTGQVLGVEDACLDVNRGEICVLMGLSGSGKSSLLRCINGLNKVSRGKLLIEHEGSQVDIANCSPATLKAMRTKRIAMVFQKFALMPWLTVAENVGFGLEMQGRPAAERKKLIDEKLELVGLSQWRDKRPDSLSGGMQQRVGLARALAMDGDILLMDEPFSALDPLIRQQLQDELLVLQRQLHKTIVFVSHDLDEALKIGTRIAIMKDGRIIQHGKPEEIVLSPADDYVRTFVAHTNPLNVLCGQSLMRGLDQCIRQNDEICFDQGRDCWIGLSEGDVLKGARQGSNVIDLQRWRQGDPVEKLRREPTLVDVSIRMRDALQIRYQTGHKLVLQEQDRVVGVLGDSELYHALLGKN | not soluble
10 | MADKLAFTTADLVTCLICIREFDTKTRKPKVLHCGHTVCEECTDNLRDFNAPLLVVRCPTCRQFTKRPVAESCNTNFQLMGYLAEKEKFEREKKAKGGKPKKPDQVLTLKMARSNRMEIHVASKKDLEGPELYLRKDSEGNTHIVVAGLTGSPAEVMKFITENGISIETGVLMPQVVYDEGRTRGGTEKFAKVNSMAAGQSAIKCTKPPVKLEELEFHKTFELKVSEESGSLKMELVQKEEVPKNGFGVFEGCMTKPSAKRLKEFTDSCPGTSAEDEVQVIEPEPLPKRRRTRK | not soluble
11 | GPGSMAGKGNAKVVVTHPKSRKVRQLQRQSRREKRISEQKGKRNAKAALEAARFFWFREQCLALGRTKLAFSREEAQVLTEQYLKRNDEEIVALKSMRNPTAGRIKILEAMKTSEADDFNSSKGIVIPDITNSDNLEILTSIWDGRADTAGVVRRVGLTRTGVSPAAPAVTELEGKLLTIDEVRERSIDFTSRKARKFQTMKRVQSVKKTPTAEDVWLRSKKRGVDLQAKRLRQGREAVLKTRRAN | soluble
12 | NLYHTPIFSVDREYEWLEKRHDKMLFAFDIPIHLTRRVLLVAGEAHTGGTMEAFTRYLRSIGVGEIKTCVFYKQSICTQHIDFWGMEGENTILMPWQNAQSIRDSLSKAQANQLKKIQRQRDC | not soluble
13 | MSLKAIAVDMDGTFLDSKKTYDKPRFEAIFTELRNRDITFIAASGNQYAKLKSIFGDRDMYFISENGAVIYKGNELYNYKSFNRQVFQQVVDYLNMNQSIDQLVICGLKSAYILKHTSEAFKEDTRFYYHQLKEIDSLQQLPEDDYVKIAFNINRETHPNVDEEVATQFSNDIKLVSSGHDSIDIIMPNMTKGQALKRLLDKWEMSPSELMAFGDANNDKDMLAFAKHSYVMENSHDEELFNIASAVAPSNDKQGVLTIIEQEVLNKEGHHHHHH | soluble
14 | MQILNKILPQVEFAIPRPSFDSLSRNKLVKKILSVFNLKQRFPQKNFGCPVNINKIRDSVIDKIKDSNSGNQLFCWMSQERTTYVSSMINRSIDEMAIHNGVVLTSDNKRNIFAAIEKKFPDIKLDEKSAQTSISHTALNEIASSGLRAKILKRYSSDMDLFNTQMKDLTNLVSSSVYDKIFNESTKVLQIEISAEVLKAVYRQSNTNLEHHHHHH | not soluble
15 | SIMTVRTTHTEVEVHAGGTVELPCSYQLANDTQPPVISWLKGASPDRSTKVFKGNYNWQGEGLGFVESDSYKESFGDFLGRASVANLAAPTLRLTHVHPQDGGRYWCQVAQWSIRTEFGLDAKSVVLKVTGHTPSNNVHVSTAEVVQVDEGNDITMTCPCTDCANANVTWYTGPTFFENYETGTYQPLANKNQFGITWFSSEIAGRASFSGARNLVIRAAKITDAGRVWCELATGQGELDADRSSTILKV | soluble
16 | MQAAITVAIPILYKDSVSCSHAESEHFSGTGVTVIIFEVGRDCMKYSFLRQINACVCFDQYEEMEGLLCNGLYMFFIQYTPTILRGDLFAF | not soluble
17 | MGSDKIHHHHHHMEQLLHYVWKHKIFPLKELKTTTGQQVEVIDTGLANTDAGPDFFNAKLKLDGVLWIGNIEIHERSSDWFKHGHHADAGYNSVILHIASEIDTEISRSNGERIPQIQLICPEAVRTNYKELLETDSYPPCYRIIPSLPPFTAHSWMTALQMERFEQKATLLNERLKRCQGNWEDAFFITLARNFGFGLNGDAFETWAHRLPFRAVDKHRNDLFQIEAIFFGQAGILEDSDGDGYYLRLKKEYTYLQHKFGLIPMDASLWRFLRLRPANFPHIRIAQLACLYHRAYGLLSRIMETETLQGVRDILKGGTSEYWLTHYTFGGSSPSRPKTLSNTSLDLLIINTVVTFLYAYGLHKGNRVLCARAGCFLEELKAENNYITRMWEQCGMKASNAADSQALIQLKKEYCDKKKCLYCRIGYEYLKRS | not soluble
18 | MGSDKIHHHHHHMKISPLCPSCLLGRVYYEAKLVTDDEDLISQCVDESLKILAENYSSAPINAHLATRIHRRVYEILGVEDPYAEVKARANEVARQVLPLAKEIVEGSDDPFKTAVIVSIVGNNFDYGVQGHKVVEEEFRDFLKRKVQEGLKINDTERIKELSSGKVVYLTDNAGEIFFDTLLMKEIKRRCEKLTAVVRGRPIISDATIEDARLARVDKIADELLTNGKGAIGIIMDELPDETRKALEEADLIVAKGMANYECLSDGSLKPIAFLLTAKCEPVARDIGVNVGDMVAKVVE | not soluble
19 | MGSDKIHHHHHHMMENSLNIIEKMNPNQKINYDRVFQKVRESWERDSVRPKILLHSCCAPCSTYSLEYLTQSADVTIYFANSNIHPSTEYTRRKMVQEQFVKDFNERTGNNVQFIAAEYEPNVFLQMVRQKHLENEPEGGKRCTSCFEMRLDIVAEKALELGFDYFGSALTLSPKKNSQLINEIGLDIQKIYDVNYLPSDFKKNNGYKRSVEMCKEYDVYRQCYCGCIFAAKAQGIDLKEQNREAIKFIRNQS | not soluble
20 | AEICLITGTPGSGKTLKMVSMMANDEMFKPDENGIRRKVFTNIKGLKIPHTYIETDAKKLPKSTDEQLSAHDMYEWIKKPENIGSIVIVDEAQDVWPARSAGSKIPENVQWLNTHRHQGIDIFVLTQGPKLLDQNLRTLVRKHYHIASNKMGMRTLLEWKICADDPVKMASSAFSSIYTLDKKVYDLYESAEVHTVNKVKRSK | not soluble
